Columns and labels:
Assay in all cases: ITC
[1] = biological target: human Bad BH3 motif peptide (26-mer) (human)
[2] = biological target: human Bmf BH3 motif peptide (26-mer) (human)
[3] = biological target: human Hrk BH3 motif peptide (26-mer) (human)
[4] = biological target: human Puma BH3 motif peptide (26-mer) (human)

| Substance | fold reduction in binding against wild type TANV16L [1] | fold reduction in binding against wild type TANV16L [2] | fold reduction in binding against wild type TANV16L [3] | fold reduction in binding against wild type TANV16L [4] |
| --- | --- | --- | --- | --- |
| TANV16L K52A lacking the C-terminal 23 residues (domain or fragment) | 27 fold | 20 fold |  |  |
| TANV16L R90A lacking the C-terminal 23 residues (domain or fragment) |  |  | 2 fold | 2 fold |
